Tests used:
Sgk = test: In vitro peptide kinase assay (Sgktide, [32P]ATP) of immunoprecipitated HA-Sgk; type: biochemical; settings: mutant forms of Sgk
Excerpt: Sgk is a component of the PI3 kinase cascade and is directly activated by PDK1 mediated phosphorylation of threonine 256 in the activation loop. […] To develop this kinase assay, lysates from human embryo kidney 293 cells transfected to express wild type hemagglutinin (HA)-tagged Sgk (HA-Sgk) were isolated and the Sgk immunoprecipitated with HA antibodies was used to screen a synthetic peptide library for identifying potential Sgk substrates. The immunoprecipitates were extensively washed, and incubated with the peptide in the presence of [^32P]ATP in kinase buffer (Park et al 1999). Sgk phosphorylated several peptides, and the best substrate for Sgk was KKRNRRLSVA (SEQ ID NO:01), which is named Sgktide. […] This substrate specificity is generally similar to, but not identical, with the substrate specificity for Akt, which is a well characterized down stream component of the PI 3 kinase pathway.
Cotransfection of PDK1 with Sgk caused a 6-fold activation of Sgk activity, whereas, the kinase-dead form of PDK1 had no effect. […] The Ser-78 in the amino terminal domain is a third phosphorylation site and expression of the S78G Sgk mutation ablates the presence of the slowest migrating form of phosphorylated Sgk in SDS polyacrylamide gels.

mammary epithelial cells = test: Co-staining for ectopically expressed Sgk and apoptotic cells (TUNEL fluorescence assay); type: cell-based; settings: after hyperosmotic stress, ectopic expression
[1] = biological target: T1, epithelial sodium channel (ENaC) (Xenopus laevis, UniProt P51167+P51169+P51171); test: Epithelial sodium channel activity after co-expression in oocytes; type: cell-based
T1 construct: expressed in transfected cells; host or cells: Xenopus laevis oocytes (co-expression with Sgk)
T1 sequence (P51167 1-632): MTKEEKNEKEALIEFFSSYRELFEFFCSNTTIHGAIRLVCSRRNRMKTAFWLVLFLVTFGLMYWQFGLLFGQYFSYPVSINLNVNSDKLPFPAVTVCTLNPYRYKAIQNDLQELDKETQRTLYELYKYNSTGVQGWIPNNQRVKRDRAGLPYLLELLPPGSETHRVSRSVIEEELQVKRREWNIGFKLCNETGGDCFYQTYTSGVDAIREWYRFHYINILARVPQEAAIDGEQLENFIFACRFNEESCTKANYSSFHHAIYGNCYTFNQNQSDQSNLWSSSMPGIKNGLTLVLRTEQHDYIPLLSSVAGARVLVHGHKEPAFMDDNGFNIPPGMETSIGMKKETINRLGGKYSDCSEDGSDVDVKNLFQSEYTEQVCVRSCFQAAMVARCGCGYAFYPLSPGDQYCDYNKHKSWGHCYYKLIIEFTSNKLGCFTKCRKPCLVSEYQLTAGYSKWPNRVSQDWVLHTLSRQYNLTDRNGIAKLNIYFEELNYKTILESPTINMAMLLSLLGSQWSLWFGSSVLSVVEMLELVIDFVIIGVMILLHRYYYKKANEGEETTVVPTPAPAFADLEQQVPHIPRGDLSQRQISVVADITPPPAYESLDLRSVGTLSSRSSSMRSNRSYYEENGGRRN
T1 sequence (P51169 1-647): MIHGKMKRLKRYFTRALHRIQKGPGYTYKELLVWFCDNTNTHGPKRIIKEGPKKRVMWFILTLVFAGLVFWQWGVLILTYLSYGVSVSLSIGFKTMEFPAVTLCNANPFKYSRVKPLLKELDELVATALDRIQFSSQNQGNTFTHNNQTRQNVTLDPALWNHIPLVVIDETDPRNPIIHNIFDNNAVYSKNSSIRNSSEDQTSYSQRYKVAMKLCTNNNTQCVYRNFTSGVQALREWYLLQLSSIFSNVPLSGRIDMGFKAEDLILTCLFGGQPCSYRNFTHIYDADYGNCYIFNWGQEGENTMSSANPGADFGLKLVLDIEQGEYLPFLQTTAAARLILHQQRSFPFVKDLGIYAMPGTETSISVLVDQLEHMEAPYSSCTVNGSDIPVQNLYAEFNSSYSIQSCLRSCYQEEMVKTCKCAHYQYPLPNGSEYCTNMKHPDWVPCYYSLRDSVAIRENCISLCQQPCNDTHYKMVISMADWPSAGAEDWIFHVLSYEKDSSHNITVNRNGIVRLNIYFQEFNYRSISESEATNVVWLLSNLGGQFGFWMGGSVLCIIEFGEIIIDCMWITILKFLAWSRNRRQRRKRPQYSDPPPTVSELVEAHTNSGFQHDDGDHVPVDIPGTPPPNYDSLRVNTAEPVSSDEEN
T1 sequence (P51171 1-660): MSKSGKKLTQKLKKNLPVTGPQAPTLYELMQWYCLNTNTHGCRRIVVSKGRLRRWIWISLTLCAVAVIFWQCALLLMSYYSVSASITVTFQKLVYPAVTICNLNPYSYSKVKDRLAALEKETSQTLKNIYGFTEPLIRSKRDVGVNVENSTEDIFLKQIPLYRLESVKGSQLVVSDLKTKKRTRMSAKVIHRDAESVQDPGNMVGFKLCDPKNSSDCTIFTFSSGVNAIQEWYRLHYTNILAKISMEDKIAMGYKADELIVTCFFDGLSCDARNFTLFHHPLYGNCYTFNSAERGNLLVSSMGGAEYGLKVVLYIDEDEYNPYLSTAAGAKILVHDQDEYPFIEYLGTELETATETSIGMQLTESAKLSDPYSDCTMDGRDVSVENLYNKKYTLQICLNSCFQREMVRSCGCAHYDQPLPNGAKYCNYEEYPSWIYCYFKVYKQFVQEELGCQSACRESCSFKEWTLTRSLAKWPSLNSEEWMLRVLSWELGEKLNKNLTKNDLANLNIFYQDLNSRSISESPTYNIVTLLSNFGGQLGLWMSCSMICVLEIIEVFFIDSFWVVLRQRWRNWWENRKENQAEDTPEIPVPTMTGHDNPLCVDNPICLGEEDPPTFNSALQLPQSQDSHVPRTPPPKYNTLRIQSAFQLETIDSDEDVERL
Excerpt: Identification of Sgk-interacting proteins that may connect Sgk to the cellular stress response. Using the yeast two-hybrid genetic screening strategy discussed earlier, we also identified IF-1, which is a negative regulator of the mitochondrial F1 ATPase pump, as an Sgk-interacting protein. […] Furthermore, cell lysates containing endogenous Sgk induced in response to glucocorticoids, serum, hyperosmotic stress or UV radiation interacted specifically with the GST-IF1 fusion protein but not with GST alone, as assessed by anti-sgk immunoblotting. […] We disclose that in response to genotoxic or hormonal stress cues, high levels of Sgk protein are produced, which then binds to the IF1 ATPase inhibitor, thus activating the mitochondrial F1 ATPase. We have also shown that Sgk activates the epithelial sodium channel (ENaC) after their co-expression in Xenopus Laevis oocytes. […] These observations indicate that one function of Sgk is to regulate cell volume following osmotic stress of the cells. […] Intriguingly, the cytoplasmic domains of the ENaC beta subunit contain amino acid sequences surrounding a serine that indicate it is an endogenous substrate for Sgk. Previous studies have shown that both the beta and gamma subunits of EnaC are phosphorylated (Shimkets, R. A.,et al. 1998. Proc Natl Acad Sci USA 95:3301–5).

B1: K127M: Sgk with lysine 127 in the ATP binding domain substituted with methionine; kinase dead (protein, UniProt O00141 1-431, looked up, variant K127M)
Serine/threonine-protein …: MTVKTEAAKGTLTYSRMRGMVAILIAFMKQRRMGLNDFIQKIANNSYACKHPEVQSILKISQPQEPELMNANPSPPPSPSQQINLGPSSNPHAKPSDFHFLKVIGKGSFGKVLLARHKAEEVFYAVMVLQKKAILKKKEEKHIMSERNVLLKNVKHPFLVGLHFSFQTADKLYFVLDYINGGELFYHLQRERCFLEPRARFYAAEIASALGYLHSLNIVYRDLKPENILLDSQGHIVLTDFGLCKENIEHNSTTSTFCGTPEYLAPEVLHKQPYDRTVDWWCLGAVLYEMLYGLPPFYSRNTAEMYDNILNKPLQLKPNITNSARHLLEGLLQKDRTKRLGAKDDFMEIKSHVFFSLINWDDLINKKITPPFNPNVSGPNDLRHFDPEFTEEPVPNSIGKSPDSVLVTASVKEAAEAFLGFSYAPPTDSFL
Sgk
  kinase activity / activation of Sgk mutant: kinase dead form of Sgk
Mammary epithelial cells
  correlation between Sgk positive and TUNEL positive cells: ~55%
[1]
  basal ENaC activity: inhibiting the basal EnaC activity

Reference: patent publication US7087392B2, “Antiproliferative SgK reagents and methods” (The Regents of the University of California, priority 1999, dated 2006)
